T1: scrambled RNase A (reduced and denatured ribonuclease A), P61823
T1 chain: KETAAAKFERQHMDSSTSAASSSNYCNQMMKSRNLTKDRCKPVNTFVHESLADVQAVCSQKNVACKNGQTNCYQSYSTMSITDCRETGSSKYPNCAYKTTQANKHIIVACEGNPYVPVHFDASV

B1: recombinant protein LmPDI-(His)6 produced in E. coli (protein)
chain: RESTAESLKLTKENFNETIAKSEIFLVKFYVDTCGYCQMLAPEWEKAANETIDNALMGEVDCHSQPELAANFSIRGYPTIILFRNGKEAEHYGGARTKDDIIKYIKANVGPAVTPASNAEEVTRAKEEHDVVCVGLTANNSTSLSTTLAEAAQSFRVSLKFFEAEPKLFPDEKPETIVVYRKGGEKEVYDGPMEVEKLTEFLQISRVAFGGEITPENYQYYSVIKRPVGWAMVKPNETASIELKESLTEVGKKMRSHMVVLWVNISKHPVWRDFGVPEDAKYPAFLAIHWGANYLHSTAEVVTRESLEKFILEFAAGRVEPTIKSLPVPEVETVDGKTTIVAKTMQKHLTSGKDMLILFFAPWCGHCKNFAPTFDKIAKEFDATDLIVAELDATANYVNSSTFTVTAFPTVFFVPNGGKPVVFEGERSFENVYEFVRKHVTTFKVSEKPANVTEEKKSEEENKSSKSNESNDSNESNVDKQDL
B2: bovine protein disulfide-isomerase (protein)
chain: APDEEDHVLVLHKGNFDEALAAHKYLLVEFYAPWCGHCKALAPEYAKAAGKLKAEGSEIRLAKVDATEESDLAQQYGVRGYPTIKFFKNGDTASPKEYTAGREADDIVNWLKKRTGPAASTLSDGAAAEALVESSEVAVIGFFKDMESDSAKQFFLAAEVIDDIPFGITSNSDVFSKYQLDKDGVVLFKKFDEGRNNFEGEVTKEKLLDFIKHNQLPLVIEFTEQTAPKIFGGEIKTHILLFLPKSVSDYEGKLSNFKKAAESFKGKILFIFIDSDHTDNQRILEFFGLKKEECPAVRLITLEEEMTKYKPESDELTAEKITEFCHRFLEGKIKPHLMSQELPDDWDKQPVKVLVGKNFEEVAFDEKKNVFVEFYAPWCGHCKQLAPIWDKLGETYKDHENIVIAKMDSTANEVEAVKVHSFPTLKFFPASADRTVIDYNGERTLDGFKKFLESGGQDGAGDDDDLEDLEEAEEPDLEEDDDQKAVKDEL

Tests used:
[1] = biological target: recombinant protein LmPDI-(His)6 produced in E. coli (Leishmania major); assay: cell-based or functional assay
[2] = biological target: T1, scrambled RNase A (reduced and …)

Molecule | inhibition of LmPDI activity (scrambled RNase A reactivation test) [1] [mM] | inhibition of rLmPDI activity (scrambled RNase reactivation) (% inhibition at 0.1 mM) [1] | inhibition of rLmPDI activity (scrambled RNase reactivation) (% inhibition at 0.5 mM) [1] | inhibition of rLmPDI activity (scrambled RNase reactivation) (% inhibition at 2 mM) [1] | reactivation of scrambled RNase A (RNase A activity at 296 nm) [2]
bacitracin (peptide) | 2 | 50 | 70 | 100 | 
zinc bacitracin (peptide) | 2 | 50 | 70 | 100 | 
B1 |  |  |  |  | LmPDI is capable of restoring RNase A activity in a similar manner to that of bovine PDI
B2 |  |  |  |  | LmPDI is capable of restoring RNase A activity in a similar manner to that of bovine PDI, used as a control
